{"source": "paper PMC3758421", "binders": {"B1": {"name": "MCP sensor (Spinach fusion with MS2E) (structured_RNA)", "RNA": "GACGCGACUGAAUGAAAUGGUGAAGGACGGGUCCAAUGAGGAUCACCCAUUUGUUGAGUAGAGUGUGAGCUCCGUAACUAGUCGCGUC"}, "B2": {"name": "thrombin sensor (Spinach fusion) (structured_RNA)", "RNA": "GACGCGACUGAAUGAAAUGGUGAAGGACGGGUCCAGGAACAAAGCUGAAGUACUUACCUUGUUGAGUAGAGUGUGAGCUCCGUAACUAGUCGCGUC"}, "B3": {"name": "streptavidin sensor (Spinach fusion) (structured_RNA)", "RNA": "GACGCGACUGAAUGAAAUGGUGAAGGACGGGUCCACGACCGACCAGAAUCAUGCAAGUGCGUAAGAUAGUCGCGGGCCGGGGUUGUUGAGUAGAGUGUGAGCUCCGUAACUAGUCGCGUC"}}, "assay_in_all_cases": "Spinach sensor fluorescence", "key": {"[1]": {"target": "MS2 phage coat protein (MCP) (MS2 phage, UniProt P03612 2-130)", "sequence (P03612 2-130)": "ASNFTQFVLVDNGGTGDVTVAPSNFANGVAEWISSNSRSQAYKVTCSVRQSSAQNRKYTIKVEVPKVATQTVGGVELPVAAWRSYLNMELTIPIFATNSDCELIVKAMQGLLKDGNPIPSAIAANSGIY"}, "thrombin": {"target": "thrombin (human, UniProt P00734;P00734 315-363;364-622)"}, "streptavidin": {"target": "streptavidin (UniProt P22629 25-183)", "sequence (P22629 25-183)": "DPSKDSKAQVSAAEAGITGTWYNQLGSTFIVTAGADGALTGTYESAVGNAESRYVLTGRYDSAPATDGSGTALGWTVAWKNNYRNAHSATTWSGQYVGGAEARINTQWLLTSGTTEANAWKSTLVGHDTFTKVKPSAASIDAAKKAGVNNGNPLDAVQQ"}}}
{"binder": "B1", "values": [{"measurement": "binding signal", "setting": "[1]", "result": "41.7 fold fluorescence increase"}]}
{"binder": "B2", "values": [{"measurement": "binding signal", "setting": "thrombin", "result": "6.9 fold fluorescence increase"}]}
{"binder": "B3", "values": [{"measurement": "binding signal", "setting": "streptavidin", "result": "10.3 fold fluorescence increase"}]}
